B1: humanized SW186 H1L1 (antibody, V domains shown)
VH: QVQLVQSGAEVKKPGSSVKVSCKASGVAFSSYWMNWVRQAPGQGLEWMGQIYPGDGDTNYNGKFKGRVTITADKSTSTAYMELSSLRSEDTAVYYCARGFIATVEETMDYWGQGTLVTVSS
VL: DIQMTQSPSSLSASVGDRVTITCRASQDISNYLNWYQQKPGKAPKLLIYYTSRLHSGVPSRFSGSGSGTDFTLTISSLQPEDFATYYCQQSHTLPWTFGGGTKLEIK
B2: humanized SW186 H3L2 (antibody, V domains shown)
VH: QVQLVQSGAEVKKPGSSVKVSCKASGVAFSSYWMNWVRQAPGQGLEWIGQIYPGDGDTNYNGKFKGRATITADKSTSTAYMELSSLRSEDTAVYFCARGFIATVEETMDYWGQGTLVTVSS
VL: DIQMTQSPSSLSASVGDRVTITCRASQDISNYLNWYQQKPGKAPKLLIYYTSRLHSGVPSRFSGSGSGTDFTLTISSLQPEDFATYFCQQSHTLPWTFGGGTKLEIK
B3: humanized SW186 H1L2 (antibody, V domains shown)
VH: QVQLVQSGAEVKKPGSSVKVSCKASGVAFSSYWMNWVRQAPGQGLEWMGQIYPGDGDTNYNGKFKGRVTITADKSTSTAYMELSSLRSEDTAVYYCARGFIATVEETMDYWGQGTLVTVSS
VL: DIQMTQSPSSLSASVGDRVTITCRASQDISNYLNWYQQKPGKAPKLLIYYTSRLHSGVPSRFSGSGSGTDFTLTISSLQPEDFATYFCQQSHTLPWTFGGGTKLEIK
B4: humanized SW186 H3L1 (antibody, V domains shown)
VH: QVQLVQSGAEVKKPGSSVKVSCKASGVAFSSYWMNWVRQAPGQGLEWIGQIYPGDGDTNYNGKFKGRATITADKSTSTAYMELSSLRSEDTAVYFCARGFIATVEETMDYWGQGTLVTVSS
VL: DIQMTQSPSSLSASVGDRVTITCRASQDISNYLNWYQQKPGKAPKLLIYYTSRLHSGVPSRFSGSGSGTDFTLTISSLQPEDFATYYCQQSHTLPWTFGGGTKLEIK
B5: humanized SW186 H4L2 (antibody, V domains shown)
VH: QVQLVQSGAEVKKPGSSVKVSCKASGVAFSSYWMNWVKQAPGQGLEWIGQIYPGDGDTNYNGKFKGKATITADKSTSTAYMELSSLRSEDTAVYFCARGFIATVEETMDYWGQGTLVTVSS
VL: DIQMTQSPSSLSASVGDRVTITCRASQDISNYLNWYQQKPGKAPKLLIYYTSRLHSGVPSRFSGSGSGTDFTLTISSLQPEDFATYFCQQSHTLPWTFGGGTKLEIK
B6: humanized SW186 H3L4 (antibody, V domains shown)
VH: QVQLVQSGAEVKKPGSSVKVSCKASGVAFSSYWMNWVRQAPGQGLEWIGQIYPGDGDTNYNGKFKGRATITADKSTSTAYMELSSLRSEDTAVYFCARGFIATVEETMDYWGQGTLVTVSS
VL: DIQMTQSPSSLSASVGDRVTITCRASQDISNYLNWYQQKPGKTVKLLIYYTSRLHSGVPSRFSGSGSGTDYTLTISSLQPEDFATYFCQQSHTLPWTFGGGTKLEIK
B7: humanized SW186 H2L4 (antibody, V domains shown)
VH: QVQLVQSGAEVKKPGSSVKVSCKASGVAFSSYWMNWVRQAPGQGLEWIGQIYPGDGDTNYNGKFKGRVTITADKSTSTAYMELSSLRSEDTAVYFCARGFIATVEETMDYWGQGTLVTVSS
VL: DIQMTQSPSSLSASVGDRVTITCRASQDISNYLNWYQQKPGKTVKLLIYYTSRLHSGVPSRFSGSGSGTDYTLTISSLQPEDFATYFCQQSHTLPWTFGGGTKLEIK
B8: humanized SW186 H1L3 (antibody, V domains shown)
VH: QVQLVQSGAEVKKPGSSVKVSCKASGVAFSSYWMNWVRQAPGQGLEWMGQIYPGDGDTNYNGKFKGRVTITADKSTSTAYMELSSLRSEDTAVYYCARGFIATVEETMDYWGQGTLVTVSS
VL: DIQMTQSPSSLSASVGDRVTITCRASQDISNYLNWYQQKPGKAPKLLIYYTSRLHSGVPSRFSGSGSGTDYTLTISSLQPEDFATYFCQQSHTLPWTFGGGTKLEIK
B9: humanized SW186 H2L2 (antibody, V domains shown)
VH: QVQLVQSGAEVKKPGSSVKVSCKASGVAFSSYWMNWVRQAPGQGLEWIGQIYPGDGDTNYNGKFKGRVTITADKSTSTAYMELSSLRSEDTAVYFCARGFIATVEETMDYWGQGTLVTVSS
VL: DIQMTQSPSSLSASVGDRVTITCRASQDISNYLNWYQQKPGKAPKLLIYYTSRLHSGVPSRFSGSGSGTDFTLTISSLQPEDFATYFCQQSHTLPWTFGGGTKLEIK
B10: humanized SW186 H2L3 (antibody, V domains shown)
VH: QVQLVQSGAEVKKPGSSVKVSCKASGVAFSSYWMNWVRQAPGQGLEWIGQIYPGDGDTNYNGKFKGRVTITADKSTSTAYMELSSLRSEDTAVYFCARGFIATVEETMDYWGQGTLVTVSS
VL: DIQMTQSPSSLSASVGDRVTITCRASQDISNYLNWYQQKPGKAPKLLIYYTSRLHSGVPSRFSGSGSGTDYTLTISSLQPEDFATYFCQQSHTLPWTFGGGTKLEIK
B11: humanized SW186 H1L4 (antibody, V domains shown)
VH: QVQLVQSGAEVKKPGSSVKVSCKASGVAFSSYWMNWVRQAPGQGLEWMGQIYPGDGDTNYNGKFKGRVTITADKSTSTAYMELSSLRSEDTAVYYCARGFIATVEETMDYWGQGTLVTVSS
VL: DIQMTQSPSSLSASVGDRVTITCRASQDISNYLNWYQQKPGKTVKLLIYYTSRLHSGVPSRFSGSGSGTDYTLTISSLQPEDFATYFCQQSHTLPWTFGGGTKLEIK
B12: humanized SW186 H3L3 (antibody, V domains shown)
VH: QVQLVQSGAEVKKPGSSVKVSCKASGVAFSSYWMNWVRQAPGQGLEWIGQIYPGDGDTNYNGKFKGRATITADKSTSTAYMELSSLRSEDTAVYFCARGFIATVEETMDYWGQGTLVTVSS
VL: DIQMTQSPSSLSASVGDRVTITCRASQDISNYLNWYQQKPGKAPKLLIYYTSRLHSGVPSRFSGSGSGTDYTLTISSLQPEDFATYFCQQSHTLPWTFGGGTKLEIK
B13: humanized SW186 H2L1 (antibody, V domains shown)
VH: QVQLVQSGAEVKKPGSSVKVSCKASGVAFSSYWMNWVRQAPGQGLEWIGQIYPGDGDTNYNGKFKGRVTITADKSTSTAYMELSSLRSEDTAVYFCARGFIATVEETMDYWGQGTLVTVSS
VL: DIQMTQSPSSLSASVGDRVTITCRASQDISNYLNWYQQKPGKAPKLLIYYTSRLHSGVPSRFSGSGSGTDFTLTISSLQPEDFATYYCQQSHTLPWTFGGGTKLEIK
B14: humanized SW186 H4L3 (antibody, V domains shown)
VH: QVQLVQSGAEVKKPGSSVKVSCKASGVAFSSYWMNWVKQAPGQGLEWIGQIYPGDGDTNYNGKFKGKATITADKSTSTAYMELSSLRSEDTAVYFCARGFIATVEETMDYWGQGTLVTVSS
VL: DIQMTQSPSSLSASVGDRVTITCRASQDISNYLNWYQQKPGKAPKLLIYYTSRLHSGVPSRFSGSGSGTDYTLTISSLQPEDFATYFCQQSHTLPWTFGGGTKLEIK
B15: humanized SW186 H4L1 (antibody, V domains shown)
VH: QVQLVQSGAEVKKPGSSVKVSCKASGVAFSSYWMNWVKQAPGQGLEWIGQIYPGDGDTNYNGKFKGKATITADKSTSTAYMELSSLRSEDTAVYFCARGFIATVEETMDYWGQGTLVTVSS
VL: DIQMTQSPSSLSASVGDRVTITCRASQDISNYLNWYQQKPGKAPKLLIYYTSRLHSGVPSRFSGSGSGTDFTLTISSLQPEDFATYYCQQSHTLPWTFGGGTKLEIK
B16: humanized SW186 H4L4 (antibody, V domains shown)
VH: QVQLVQSGAEVKKPGSSVKVSCKASGVAFSSYWMNWVKQAPGQGLEWIGQIYPGDGDTNYNGKFKGKATITADKSTSTAYMELSSLRSEDTAVYFCARGFIATVEETMDYWGQGTLVTVSS
VL: DIQMTQSPSSLSASVGDRVTITCRASQDISNYLNWYQQKPGKTVKLLIYYTSRLHSGVPSRFSGSGSGTDYTLTISSLQPEDFATYFCQQSHTLPWTFGGGTKLEIK
B17: humanized SW186 H3L2 (antibody, V domains shown)
VH: QVQLVQSGAEVKKPGSSVKVSCKASGVAFSSYWMNWVRQAPGQGLEWIGQIYPGDGDTNYNGKFKGRATITADKSTSTAYMELSSLRSEDTAVYFCARGFIATVEETMDYWGQGTLVTVSS
VL: DIQMTQSPSSLSASVGDRVTITCRASQDISNYLNWYQQKPGKAPKLLIYYTSRLHSGVPSRFSGSGSGTDFTLTISSLQPEDFATYFCQQSHTLPWTFGGGTKLEIK
B18: SW186 (murine variable regions, murine-human chimeric) (Fab, V domains shown)
VH: QVQLQQSGAELVKPGASVKISCKASGVAFSSYWMNWVKQRPGKGLEWIGQIYPGDGDTNYNGKFKGKATLTADKSSSTAYMQLSSLSSEDSAVYFCARGFIATVEETMDYWGQGTSVTVSS
VL: DIQMTQTTSSLSASLGDRVTISCRASQDISNYLNWYQQKPDGTVKLLIYYTSRLHSGVPSRFSGSGSGTDYSLTISNLEQEDIATYFCQQSHTLPWTFGGGTKLEIK

In the first test the target is SARS-CoV-2 spike ectodomain (S-ecto), Wuhan-hu-1, 2P (SARS-CoV-2, Wuhan-hu-1, UniProt P0DTC2, 2P mutation at residues 986 and 987, biotinylated (EZ-link NHS-sulfo-LC-Biotin) for the BLI assay). As to the kind of experiment: BLI. The note with it: both partners purified.
For the molecule B1, binding was put at a Kd of 10 nM.
For B2, the Kd (usually the concentration at which binding is half-saturated) is 6.09 nM.

A further test has as its target SARS-CoV-2 spike ectodomain (S-ecto), Wuhan-hu-1 strain, 2P (SARS-CoV-2, Wuhan-hu-1, UniProt P0DTC2, 2P mutation at residues 986 and 987 | 2P mutation at residues 986 and 987, biotin (NHS-sulfo-LC-Biotin, EZ-link biotinylation kit)). As to the kind of experiment: BLI. The note with it: both partners purified.
Consider B3, for which binding was put at a Kd of 26.2 nM; the koff (as a rule, the rate constant with which the complex falls apart) came to 0.00126 s⁻¹; the kon (commonly a measure of how fast the partners come together) turned out to be 48200 M⁻¹ s⁻¹.
For the molecule B4, the Kd was 6.69 nM, the koff was 0.00119 s⁻¹ and the kon came out at 178000 M⁻¹ s⁻¹.
On the same counts, the results for B5 are 5.86 nM, 0.000953 s⁻¹ and 163000 M⁻¹ s⁻¹.
On to B6, for which the Kd worked out at 2.6 nM, the koff is 0.000469 s⁻¹ and the association rate constant (kon) stood at 181000 M⁻¹ s⁻¹.
In turn, B7 yielded a Kd of 3.14 nM, a koff of 0.000603 s⁻¹ and a kon of 192000 M⁻¹ s⁻¹.
Taken in the same sequence, the figures for B8 were 4.37 nM, 0.000598 s⁻¹ and 137000 M⁻¹ s⁻¹.
Molecule B9 yielded a Kd of 12.6 nM, an off-rate (koff) of 0.00151 s⁻¹ and a kon of 120000 M⁻¹ s⁻¹.
In turn, B10 came in with a Kd of 3.72 nM, a koff of 0.000713 s⁻¹ and an association rate constant (kon) of 191000 M⁻¹ s⁻¹.
On the same counts, the results for B11 are 5.03 nM, 0.000519 s⁻¹ and 103000 M⁻¹ s⁻¹.
Turning to B12, the Kd came out at 5.82 nM, the koff worked out at 0.000761 s⁻¹ and the on-rate constant (kon) amounted to 131000 M⁻¹ s⁻¹.
Taken in the same sequence, the figures for B13 were 18.1 nM, 0.00078 s⁻¹ and 43100 M⁻¹ s⁻¹.
The molecule B14 displayed a Kd of 2.4 nM, a koff of 0.000424 s⁻¹ and a kon of 177000 M⁻¹ s⁻¹.
On the same counts, the results for B15 are 4.14 nM, 0.00077 s⁻¹ and 186000 M⁻¹ s⁻¹.
On the same counts, the results for B16 are 1.57 nM, 0.000338 s⁻¹ and 216000 M⁻¹ s⁻¹.
On the same counts, the results for B17 are 6.09 nM, 0.00122 s⁻¹ and 201000 M⁻¹ s⁻¹.
As to B18, the affinity, expressed as Kd, was 1.09 nM; the koff was determined as 0.000128 s⁻¹; the kon was found to be 117000 M⁻¹ s⁻¹.
